Assay results as given in PMC7082571, “Two New Unspecific Peroxygenases from Heterologous Expression of Fungal Genes in Escherichia coli” (Applied and Environmental Microbiology, 2020).
Numbering of substitutions follows the chain as printed.

Key:
[1] = target: T1, rCviUPO (C. virescens UPO) (Achaetomiella virescens, UniProt Z9FBJ6W4Y2, F87L, form not given); assay: benzaldehyde formation at […] nm; assay type: biochemical; conditions: 1 mM H2O2, 0.1 M Tris, optimal pH (Fig. S10), 25°C
T1 construct: codon-optimised gene in pET23a, untagged, soluble in E. coli C41; 29,616 Da calculated, 52 kDa by SEC (most probably dimer); heme-thiolate
T1 sequence (Z9FBJ6W4Y2 1-226 F87L): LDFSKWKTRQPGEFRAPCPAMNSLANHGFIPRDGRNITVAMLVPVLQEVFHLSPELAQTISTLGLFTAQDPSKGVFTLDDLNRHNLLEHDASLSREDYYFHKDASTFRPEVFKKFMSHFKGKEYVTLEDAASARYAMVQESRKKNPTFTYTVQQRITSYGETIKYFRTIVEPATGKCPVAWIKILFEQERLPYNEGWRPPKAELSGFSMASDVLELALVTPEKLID

[2] = target: T2, rDcaUPO (D. caldariorum UPO) (Daldinia caldariorum, UniProt A0AAN0NP18); assay: benzaldehyde formation at […] nm, substrate inhibition model; assay type: biochemical; conditions: 1 mM H2O2, 0.1 M Tris, optimal pH (Fig. S6), 25°C
T2 construct: codon-optimised gene in pET28, poly-His tag (thrombin-cleavable, no effect on activity), soluble in E. coli C41; 29,609 Da calculated, 55 kDa by SEC (most probably dimer)

[3] = target: T3, rCviUPO (C. virescens UPO) (Achaetomiella virescens, UniProt Z9FBJ6W4Y2, T157F, form not given); assay: benzaldehyde formation at […] nm; assay type: biochemical; conditions: 1 mM H2O2, 0.1 M Tris, optimal pH (Fig. S10), 25°C
T3 construct: codon-optimised gene in pET23a, untagged, soluble in E. coli C41; 29,616 Da calculated, 52 kDa by SEC (most probably dimer); heme-thiolate
T3 sequence (Z9FBJ6W4Y2 1-226 T157F): T1 sequence (Z9FBJ6W4Y2 1-226 F87L) with L87F, T157F

[4] = target: T4, rCviUPO (C. virescens UPO) (Achaetomiella virescens, UniProt Z9FBJ6W4Y2); assay: benzaldehyde formation at […] nm, Hill fit; assay type: biochemical; conditions: 1 mM H2O2, 0.1 M Tris, optimal pH (Fig. S6), 25°C; sigmoidal, nH 1.6 ± 0.2
T4 construct: codon-optimised gene in pET23a, untagged, soluble in E. coli C41; 29,616 Da calculated, 52 kDa by SEC (most probably dimer); heme-thiolate
T4 sequence (Z9FBJ6W4Y2 1-226): T1 sequence (Z9FBJ6W4Y2 1-226 F87L) with L87F

[5] = target: T4, rCviUPO (C. virescens UPO); assay: veratraldehyde formation at […] nm; assay type: biochemical; conditions: 1 mM H2O2, 0.1 M acetate, optimal pH (Fig. S6), 25°C
[6] = target: T1, rCviUPO (C. virescens UPO); assay: veratraldehyde formation at […] nm; assay type: biochemical; conditions: 1 mM H2O2, 0.1 M acetate, optimal pH (Fig. S10), 25°C
[7] = target: T2, rDcaUPO (D. caldariorum UPO); assay: veratraldehyde formation at […] nm, substrate inhibition model; assay type: biochemical; conditions: 1 mM H2O2, 0.1 M acetate, optimal pH (Fig. S6), 25°C
[8] = target: T3, rCviUPO (C. virescens UPO); assay: veratraldehyde formation at […] nm; assay type: biochemical; conditions: 1 mM H2O2, 0.1 M acetate, optimal pH (Fig. S10), 25°C
[9] = target: recombinant Daldinia caldariorum unspecific peroxygenase (Daldinia caldariorum); assay: SEC; Sepharose 12 10/300 column, 10 mM Tris (pH 7.4) with 0.15 M NaCl, calibrated with ferritin, aldolase, bovine serum albumin, ovalbumin, carbonic anhydrase and aprotinin; native mass compared with SDS-PAGE under reducing conditions
[10] = target: the molecule itself; assay: as above
purified protein [11] = substrate: OCc1ccccc1; assay: purified protein; assay type: biochemical, Daldinia caldariorum; conditions: 1 mM H2O2, 0.1 M Tris, optimal pH (Fig. S6), 25°C
purified protein [12] = substrate: COc1ccc(CO)cc1OC; assay: purified protein; assay type: biochemical, Daldinia caldariorum; conditions: 1 mM H2O2, 0.1 M acetate, optimal pH (Fig. S6), 25°C
purified protein [13] = substrate: c1ccc2ccccc2c1; assay: purified protein; assay type: biochemical, Daldinia caldariorum; conditions: 1 mM H2O2, 0.1 M tartrate with 5% ethanol, optimal pH (Fig. S6), 25°C, Methods say Hill fit, Results say Michaelis-Menten
purified protein [14] = substrate: CCn1c(=NN=c2sc3cc(S(=O)(=O)O)ccc3n2CC)sc2cc(S(=O)(=O)O)ccc21; assay: purified protein; assay type: biochemical, Daldinia caldariorum; conditions: 1 mM H2O2, 0.1 M acetate, optimal pH (Fig. S6), 25°C

`OCc1ccccc1` [benzyl alcohol] was tested, and the Km [1] was 623 ± 111 µM, the “Ki (μM)” value [2] was 9,280 ± 2,270 μM and the Km [3] was 1870 µM. It also gave a Km [4] of 7100 µM.

For `COc1ccc(CO)cc1OC` [veratryl alcohol], the Km [5] was 2940 µM, the Km [6] was 1150 µM and the “Ki (μM)” value [7] was 45,400 ± 7,000 μM. It also gave a Km [8] of 3970 µM.

Molecule “recombinant Daldinia caldariorum unspecific peroxygenase (enzyme)” has a stoichiometry N [9] of 2.

B1: recombinant Collariella virescens unspecific peroxygenase (enzyme)
chain: ALDFSKWKTRQPGEFRAPCPAMNSLANHGFIPRDGRNITVAMLVPVLQEVFHLSPELAQTISTLGLFTAQDPSKGVFTLDDLNRHNLFEHDASLSREDYYFHKDASTFRPEVFKKFMSHFKGKEYVTLEDAASARYAMVQESRKKNPTFTYTVQQRITSYGETIKYFRTIVEPATGKCPVAWIKILFEQERLPYNEGWRPPKAELSGFSMASDVLELALVTPEKLID
With B1 the “stoichiometry N” value [10] was 2.

B2: rDcaUPO (D. caldariorum UPO) (Daldinia caldariorum) (protein)
chain: MAPWKAPGPDDVRGPCPMLNTLANHGFLPHDGKNIDVNTTVNALSSALNLDDELSRDLHTFAVTTNPQPNATWFSLNHLSRHNVLEHDASLSRQDAYFGPPDVFNAAVFNETKAYWTGDIINFQMAANALTARLMTSNLTNPEFSMSQLGRGFGLGETVCYVTILGSKETRTVPKAFVEYLFENERLPYELGFKKMKSALTEDELTTMMGEIYSLQHLPESFTKPFAKRSEAPFEKRAEKRCPFH
notes: codon-optimised gene in pET28, poly-His tag (thrombin-cleavable, no effect on activity), soluble in E. coli C41; 29,609 Da calculated, 55 kDa by SEC (most probably dimer)
In the case of B2, the Km (purified protein [11]) is reported as 179 ± 36 µM, the kcat (purified protein [11]) is reported as 16.1 ± 1.19 s⁻¹ and the kcat/Km (purified protein [11]) is reported as 90000 ± 19000 M⁻¹ s⁻¹. The Km (purified protein [12]) was 160 ± 22 µM, the kcat (purified protein [12]) was 2.39 ± 0.09 s⁻¹ and the kcat/Km (purified protein [12]) was 14800 ± 2100 M⁻¹ s⁻¹. The Km (purified protein [13]) was 332 ± 81 µM, the kcat (purified protein [13]) was 22.1 ± 1.92 s⁻¹ and the kcat/Km (purified protein [13]) was 66800 ± 17300 M⁻¹ s⁻¹. It also gave a Km (purified protein [14]) of 59 ± 6 µM, a kcat (purified protein [14]) of 6.73 ± 0.14 s⁻¹ and a kcat/Km (purified protein [14]) of 114000 ± 10500 M⁻¹ s⁻¹.
